Measured values: article PMC10164912, “Exploration of O-GlcNAc transferase glycosylation sites reveals a target sequence compositional bias” (The Journal of Biological Chemistry, 2023)

T1: TPR region of OGT (OGT-TPR, aa 2-474) not fused to SUMO (human, UniProt O15294 2-474)
T1 construct: O-GlcNAc transferase (OGT), human ncOGT (longest isoform, 1-1046, 13 TPR repeats), tetratricopeptide repeat region, residues 2-474; Unlabelled; this was not measured here; also called OGT-TPR with the SUMO tag removed
T1 sequence (looked up): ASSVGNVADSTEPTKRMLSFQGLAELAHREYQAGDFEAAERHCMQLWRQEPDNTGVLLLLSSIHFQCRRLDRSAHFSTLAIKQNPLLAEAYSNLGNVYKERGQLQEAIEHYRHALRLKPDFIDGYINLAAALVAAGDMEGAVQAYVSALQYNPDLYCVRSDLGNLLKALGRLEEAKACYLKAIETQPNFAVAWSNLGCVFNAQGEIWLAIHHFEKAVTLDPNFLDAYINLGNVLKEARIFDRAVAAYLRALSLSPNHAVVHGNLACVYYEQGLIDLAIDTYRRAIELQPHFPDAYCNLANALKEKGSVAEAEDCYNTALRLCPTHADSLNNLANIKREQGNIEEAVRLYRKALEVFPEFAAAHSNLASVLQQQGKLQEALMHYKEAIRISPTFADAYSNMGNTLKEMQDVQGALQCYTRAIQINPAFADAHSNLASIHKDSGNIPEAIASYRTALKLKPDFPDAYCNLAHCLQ

B1: WT FUS N-terminal low-complexity region (LCRN), aa 1-214 (domain or fragment, human, UniProt P35637 1-214, looked up)
chain: MASNDYTQQATQSYGAYPTQPGQGYSQQSSQPYGQQSYSGYSQSTDTSGYGQSSYSSYGQSQNTGYGTQSTPQGYGSTGGYGSSQSSQSSYGQQSSYPGYGQQPAPSSTSGSYGSSSQSSSYGQPQSGSYSQQPSYGGQQQSYGQQQSYNPPQGYGQQNQYNSSSGGGGGGGGGGNYGQDQSSMSSGGGSGGGYGNQDQSGGGGSGGYGQQDRG
notes: FUS (fused in sarcoma), human, N-terminal low-complexity region, aa 1-214; 15N-labelled for NMR; also called WT FUS LCRN; FUS LCRN
B2: Mut-F FUS N-terminal low-complexity region (LCRN), aa 1-214 (domain or fragment, human, UniProt P35637 1-214, looked up)
chain: MASNDYTQQATQSYGAYPTQPGQGYSQQSSTPYAQASYSTYSPSTTTSAYGQSSYSSYGQSQNTGYATTSTPQAYPSTAPYATSPSSQSSYGQQSSYPAYTQQPAPTTTSASYATSSQSSSYGQPQSGSYSQQPSYGGQQQSYGQQQSYNPPQGYGQQNQYNSSSGGGGGGGGGGNYGQDQSSMSSGGGSGGGYGNQDQSGGGGSGGYGQQDRG
notes: FUS (fused in sarcoma), human, N-terminal low-complexity region, aa 1-214, with the combined mutations of Mut-A, Mut-B and Mut-C; 15N-labelled for NMR; also called FUS Mut-F; Mut-F FUS LCRN

How the values were obtained:
Details in all cases: both partners purified
[1] = biological target: T1, TPR region of OGT (OGT-TPR, aa 2-474) …; experiment: NMR titration; 1H-15N HSQC of 15N-labelled FUS LCRN (WT or Mut-F) without and with OGT-TPR whose SUMO tag was removed; the samples with OGT-TPR phase separated, no quantitative comparison
[2] = biological target: B2; experiment: NMR titration; 1H-15N HSQC of 20 uM 15N-labelled FUS LCRN (WT or Mut-F) without and with 32 uM unlabelled SUMO-OGT-TPR; 600 MHz, 5 °C, 40 mM KPO4, 125 mM NaCl, 0.5 mM EDTA, 0.5 mM benzamidine, 5 mM DTT, 10% D2O, pH 7.2; peak intensity ratios plus OGT-TPR/apo
[3] = biological target: B1; experiment: as above

binding result [1] | average peak intensity ratio (plus OGT-TPR/apo) [2] | average peak intensity ratio (plus OGT-TPR/apo) [3] | Binder
binds |  |  | B1
binds |  |  | B2
 | 0.36 ± 0.22 | 0.48 | TPR region of OGT (OGT-TPR, aa 2-474) fused to a SUMO tag (domain or fragment, human, UniProt O15294 2-474, looked up, O-GlcNAc transferase (OGT), human ncOGT (longest isoform, 1-1046, 13 TPR repeats), tetratricopeptide repeat region, residues 2-474; Unlabelled; this was not measured here; also called SUMO-OGT-TPR; SUMO-fused OGT-TPR) ASSVGNVADSTEPTKRMLSFQGLAELAHREYQAGDFEAAERHCMQLWRQEPDNTGVLLLLSSIHFQCRRLDRSAHFSTLAIKQNPLLAEAYSNLGNVYKERGQLQEAIEHYRHALRLKPDFIDGYINLAAALVAAGDMEGAVQAYVSALQYNPDLYCVRSDLGNLLKALGRLEEAKACYLKAIETQPNFAVAWSNLGCVFNAQGEIWLAIHHFEKAVTLDPNFLDAYINLGNVLKEARIFDRAVAAYLRALSLSPNHAVVHGNLACVYYEQGLIDLAIDTYRRAIELQPHFPDAYCNLANALKEKGSVAEAEDCYNTALRLCPTHADSLNNLANIKREQGNIEEAVRLYRKALEVFPEFAAAHSNLASVLQQQGKLQEALMHYKEAIRISPTFADAYSNMGNTLKEMQDVQGALQCYTRAIQINPAFADAHSNLASIHKDSGNIPEAIASYRTALKLKPDFPDAYCNLAHCLQ
